In assay [1] the target is T1, biotinylated chitobiose-conjugated 18-mer glycopeptide (human, also: biotinylated, site not given here).
T1 construct: Cys plus T22-V38 of MUC16^c114; The range is derived from T22-V38 and the statement that c114 is 1777-1890; also called (GlcNAc2)2-18-mer, biotinylated; 18-mer(chitobiose)2[C-T22-V38]
T1 peptide: Ac-CTRN(GlcNAc2)GTQLQN(GlcNAc2)FTLDRSSV-NH2
The assay can be described thus: BLI (Octet QK), biotinylated glycopeptide on streptavidin sensor, antibody 10 ug/mL, 1:1 model. Here is the method:
Binding affinity was determined using ForeBio Octet QK. 5 μg/mL of biotinylated chitobiose-conjugated 18-mer glycopeptide was loaded onto a streptavidin biosensor. After washing off excess antigen, mouse antibodies were tested at 10 μg/mL for association and dissociation steps, respectively. Binding parameters were calculated using 1:1 binding site model, partial fit.
A general note: In BLI a coated tip is dipped into the sample, and binding shifts an interference pattern.

The target in another assay is T2, MUC16^c114 (human, capable of N-glycosylation at Asn1, Asn24 and Asn30 ; chain 1 pos 1, 24, 30: Asn capable of N-glycosylation on the transfected cells, written N).
T2 construct: The forward primer adds Met-Val before Asn1; also called MUC16^c114-GFP; SKOV3 MUC16^c114; not shown: hrGFP of the phrGFP II-C vector fused at the cytoplasmic carboxy-terminus, with its short cloning linker
T2 chain: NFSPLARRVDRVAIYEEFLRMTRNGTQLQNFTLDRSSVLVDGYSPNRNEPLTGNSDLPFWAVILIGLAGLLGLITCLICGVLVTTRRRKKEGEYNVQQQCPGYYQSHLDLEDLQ
The assay can be described thus: FACS, SKOV3-c114. A general note: Flow cytometry measures light scatter and fluorescence of single cells or particles in a stream.

In assay [2] the target is T3, GlcNAc2-15-mer glycopeptide, unconjugated (human).
T3 construct: Cys plus G25-V38 of MUC16^c114; Used in ELISA without KLH; also called 15-mer(chitobiose)[C-G25-V38]; 15mer-chitobiose peptide
T3 peptide: Ac-CGTQLQN(GlcNAc2)FTLDRSSV-NH2
Description: sandwich ELISA on 'MUC16 15mer + GlcNAc2'; Blank 0.019. On the technique in general: In an ELISA, binding on a coated surface is turned into a signal by an enzyme label.

Assay [3] deals with T4, non-glycosylated 15-mer MUC16 peptide (human).
T4 construct: Same peptide as the GlcNAc2-15-mer without the glycan; also called unglycosylated 15-mer
T4 peptide: CGTQLQNFTLDRSSV
The assay can be described thus: ELISA 12/24/13 (sups from time of freezing), dilution 400, column 15.

The target in assay [4] is T5, (GlcNAc2)2-18-mer glycopeptide, unconjugated (human).
T5 construct: Used in ELISA without KLH; also called 18-mer(chitobiose)2[C-T22-V38]; 18mer-chitobiose peptide
T5 peptide: Ac-CTRN(GlcNAc2)GTQLQN(GlcNAc2)FTLDRSSV-NH2
The assay can be described thus: ELISA 12/24/13 (sups from time of freezing), dilution 400, column 18S.

Assay [5] has as its target T6, MUC16 unrelated peptide 18mer+GlcNAc2 (also: GlcNAc2 (chitobiose), site not given here).
T6 construct: Negative control glycopeptide; also called unrelated chitobiose-linked peptide
T6 peptide: GAVPRSATINVSRIATGP
The assay can be described thus: sandwich ELISA.

Assay [6] has as its target T7, MUC16 nonglycosylated peptide 2 (human).
T7 construct: Peptide used to elicit the 4H11 antibody; also called nonglycosylated MUC16 peptide 2
T7 peptide: CTLDRSSVLVDGYSPNRNE
Description: sandwich ELISA.

Assay [7] concerns the target T8, MUC16 unrelated peptide 18mer.
T8 construct: Negative control peptide without glycan
T8 peptide: GAVPRSATINVSRIATGP
Description: sandwich ELISA.

Assay [8] has as its target T6, MUC16 unrelated peptide 18mer+GlcNAc2. Description: sandwich ELISA on 'MUC16 unrelated 18mer + GlcNAc2'; Blank 0.014.
For assay [9], the target named is T5, (GlcNAc2)2-18-mer glycopeptide, …. The assay can be described thus: sandwich ELISA on 'MUC16 18mer + GlcNAc2'; Blank 0.029.
Assay [10] has the same target. The assay can be described thus: ELISA during fusion screen, dilution 400, column 18S.
For another assay, the target named is T9, MUC16^c114-N2 (human, chain 1 pos 1 and pos 30: N-glycosylated Asn (cell-made glycans), written N).
T9 construct: MUC16^c114 with Asn24 (Asn1800) changed to Ala, on SKOV3 cells; also called N24 mut c114; SKOV3-N24 mutc114; not shown: hrGFP of the phrGFP II-C vector, fused at the cytoplasmic carboxy-terminus
T9 chain: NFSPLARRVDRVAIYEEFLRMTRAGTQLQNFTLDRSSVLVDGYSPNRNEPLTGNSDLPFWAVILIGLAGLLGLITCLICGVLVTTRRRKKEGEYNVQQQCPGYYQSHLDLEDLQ
Description: FACS, SKOV3-N24 mutc114.

Assay [11] concerns the target T8, MUC16 unrelated peptide 18mer. Description: sandwich ELISA on 'MUC16 unrelated peptide 18mer'; Blank 0.013.
Another assay has as its target T10, MUC16 18mer (not fully specified).
T10 construct: also called non-glycosylated 18-mer MUC16 peptide
T10 peptide: CTRNGTQLQNFTLDRSSV
The assay can be described thus: ELISA during fusion screen, dilution 400, column 18.

Assay [12] has as its target T11, MUC16 18mer + GlcNAc2-FUCOSE1 (also: N-linked GlcNAc2Fuc (fucosylated chitobiose), Asn site not given here).
T11 construct: also called 18-mer with fucosylated chitobiose (GlcNAc2Fuc)
T11 peptide: CTRNGTQLQNFTLDRSSV
Description: sandwich ELISA on 'MUC16 18mer + GlcNAc2-FUCOSE1'; Blank 0.044.

In assay [13] the target is T3, GlcNAc2-15-mer glycopeptide, …. Description: ELISA 12/24/13 (sups from time of freezing), dilution 400, column 15S.
The target in assay [14] is T12, MUC16^c114 on SKOV3 cells with MGAT5 knock-down (human, N-glycans without MGAT5-dependent tetra-antennary branching ; chain 1 pos 1, 24 and 30: N-glycosylated Asn, written N; the glycans lack MGAT5-dependent tetra-antennary branching (shRNA knock-down)).
T12 construct: Same polypeptide as MUC16^c114, other glycoform (shRNA against MGAT5); also called SKOV3-shMGAT5-c114; MUC16^c114-shMGAT5; not shown: hrGFP of the phrGFP II-C vector, fused at the cytoplasmic carboxy-terminus
T12 chain: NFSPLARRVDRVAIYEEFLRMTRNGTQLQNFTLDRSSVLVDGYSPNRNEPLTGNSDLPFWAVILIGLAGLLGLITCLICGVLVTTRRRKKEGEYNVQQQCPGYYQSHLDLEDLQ
The assay can be described thus: FACS, SKOV3-shMGAT5-c114.

Ends that are not written are not given here. * marks the point of attachment. GlcNAc2 = N-linked chitobiose, CC(=O)N[C@@H]1[C@@H](O)[C@H](O[C@@H]2O[C@H](CO)[C@@H](O)[C@H](O)[C@H]2NC(C)=O)[C@@H](CO)O[C@H]1*

B1: 18C6.D12 (antibody, V domains shown)
VH: QVTLKESGPGILQPSQTLSLTCSFSGFSLSTVGMGVGWSRQPSGKGLEWLAHIWWDDEDKYYNPALKSRLTISKDTSKNQVFLKIANVDTADTATYYCTRIGTAQATDALDYWGQGTSVTVSS
VL: DIVMTQAAPSVPVTPGESVSISCRSSKSLLHSNGNTYLYWFLQRPGQSPQRLIYYMSNLASGVPDRFSGRGSGTDFTLRISRVEAEDVGVYYCMQSLEYPLTFGGGTKLEIK
notes: Mouse monoclonal from a hybridoma; also called MUC16 Glycosylation Antibody 18C6
Regarding B1, the Kd (in general, the equilibrium constant for the complex coming apart) in assay [1] turned out to be 11.1 nM. For the same molecule, the off-rate constant (koff) (in general, the rate constant with which the complex falls apart) in assay [1] came to 0.000678 s⁻¹. Besides, the “geometric mean phycoerythrin (PE) fluorescence” value (shortened to “geometric mean phycoerythrin”) worked out at 2050 with MUC16^c114, 1830 with MUC16^c114-N2 and 855 in assay [14]. The ELISA signal in assay [2] was found to be 1.44; in [3] it was 0.44; in assay [4], 0.55; in assay [8] it was 0.02; in [9], 1.06; in assay [10] it was 0.64. Further, the ELISA signal is 0.02 in assay [11], 0.39 with MUC16 18mer, 1.03 in assay [12] and 0.14 in [13]. In addition, the binding result in assay [5], in assay [6] and in [7] was “no binding” throughout.

B2: 19C11.H6 (antibody, V domains shown)
VH: QVNLKESGPGKLQPSQTLSLTCSFSGFSLSTLGMGVGWIRQSSGKGLEWLAHIWWDDDKYYNPALKSRLTISRATSKNQVFLKIVNVGTADTATYYCARIGTAQATDALDYWGQGTSVTVSS
VL: DIVMTQAAPSIPVTPGESVSISCRSSKSLLHSNGNTYLYWFLQRPGQSPQRLIYYMSNLASGVPDRFSGRGSGTDFTLKISRVEAGDVGVYYCMQGLEHPLTFGGGTKLEIK
notes: Mouse monoclonal from a hybridoma; Used as 89Zr-DFO-labelled antibody in the internalization assay; also called MUC16 Glycosylation Antibody 19C11
Turning to B2, the Kd in assay [1] stood at 63.7 nM. The molecule further returned an off-rate (koff) in assay [1] of 0.00242 s⁻¹. Also, the “geometric mean phycoerythrin” value in the assay with MUC16^c114 was found to be 617; with MUC16^c114-N2 it was 486; in assay [14] it was 525. Besides, the ELISA signal in [2] is 1.51; in assay [3], 0.3; in assay [4], 0.36; in assay [8] it was 0.03; in [9], 1.1; in assay [10], 0.47. Also, the ELISA signal was found to be 0.03 in [11], 0.38 with MUC16 18mer, 1.01 in [12] and 0.1 in [13]. In addition, the binding result in assay [5], in assay [6] and in assay [7] was “no binding” throughout.

B3: 7B12.B3 (antibody, V domains shown)
VH: QVTLKESGPGILQPSQTLSLTCSFSGFSLSTVGMGVGWSRQPSGKGLEWLAHIWWDDEDKYYNPALKSRLTISKDTSKNQVFLKIANVDTADSATYYCTRIGTAQATDALDYWGQGTSVTVSS
VL: DIVMTQAAPSVSVTPGESVSISCRSSKSLRKSNGNTYLYWFLQRPGQSPQRLIYYMSNLASGVPDRFSGRGSGTDFTLRISRVEAEDVGVYYCMQSLEYPLTFGGGTKLKIK
notes: Mouse monoclonal from a hybridoma; also called MUC16 Glycosylation Antibody 7B12
Molecule B3 yielded a dissociation constant Kd in [1] of 13.8 nM. The same molecule displayed a koff in [1] of 0.00104 s⁻¹. For the same molecule, the results for the “geometric mean phycoerythrin” value (in the assay with MUC16^c114; in the assay with MUC16^c114-N2; in assay [14]) were 492, 471 and 289, respectively. The ELISA signal in assay [2] worked out at 1.32; in [3], 0.44; in assay [4], 0.51; in assay [8], 0.03; in assay [9] it was 1.06; in assay [10], 0.92. The ELISA signal amounted to 0.04 in assay [11], 0.53 with MUC16 18mer, 1.1 in assay [12] and 0.25 in [13]. The binding result in [5], in [6] and in assay [7] was “no binding” each time.
